Data taken from US20210380680A1 (ZLLP, published 2021).
Read-outs that look alike come from different tables or passages of the source.

Legend:
[1] = molecular target: T1, human Claudin 18.2 (CLDN18.2) (human, UniProt P56856-2 1-261); assay: cell-based or functional assay
[2] = molecular target: T1, human Claudin 18.2 (CLDN18.2); assay: cell-based or functional assay; remark: listed apart in the source
[3] = molecular target: T1, human Claudin 18.2 (CLDN18.2); assay: FACS on CHO-CLDN18.2 cells
[4] = molecular target: T1, human Claudin 18.2 (CLDN18.2); assay: cell-based or functional assay; remark: listed apart in the source
[5] = molecular target: T1, human Claudin 18.2 (CLDN18.2); assay: FACS on CHO-CLDN18.2 cells; remark: listed apart in the source
[6] = molecular target: T2, CLDN18.2 endogenously expressed on SNU620 gastric cancer cells (UniProt P56856-2 1-261, limits assumed); assay: FACS Exp. 3, SNU620 cells
T2 construct: whole, on cells; also called SU620

[7] = molecular target: T1, human Claudin 18.2 (CLDN18.2); assay: FACS Exp. 1, MFI ratio CHO-18.2 over CHO-18.1
[8] = molecular target: T1, human Claudin 18.2 (CLDN18.2); assay: FACS Exp. 2, MFI ratio CHO-18.2 over CHO-18.1
[9] = molecular target: T1, human Claudin 18.2 (CLDN18.2); assay: FACS on CHO-CLDN18.2 cells; remark: listed apart in the source

Row | % ADCC @ 6.67 nM, NCI-N87-CLDN18.2, FcR-TANK [1] | ADCC EC50, NCI-N87-CLDN18.2, FcR-TANK [1] | ADCC EC50, NUGC4-CLDN18.2, PBMC [2] | EC50 [3] | MFI_SNU620 (@30 ug/ml) [6] | MFI_CHO-18.2/CHO-18.1 (@30 ug/ml) [7] | MFI_CHO-18.2/CHO-18.1 (@30 ug/ml) [8] | Binder | % specific cytotoxicity @ 6.67 nM, NUGC4-CLDN18.2, PBMC [2] | also measured
1 | 11.1% | 0.22 nM | 5.86 nM | 2.09 nM | – | – | – | 413H9F8-cp3 (antibody, V domains shown, humanized IgG; constant regions not specified) VH: DVQLVESGGGLVQPGGSLRLSCAASGFTFSSFGMHWVRQAPGKGLEWVAYISSGSSPIYYVDKLKGRFTVSRDNAKNSLYLQMNSLRAEDTAVYYCARAGYAVRNALDYWGQGTLVTVSS VL: EIVMTQSPPTLSLSPGERVTLSCKSSQSLLNVGNQKNYLAWYQQKPGQAPRLLIYGASTRESGIPARFSGSGSGTDFTLTISSLQPEDFAVYYCQNDLFYPLTFGGGTKVEIK | 30.5% | –
2 | 13.1% | 0.27 nM | 8.85 nM | 2.72 nM | – | – | – | 413H9F8-cp8 (antibody, V domains shown, humanized IgG; constant regions not specified) VH: DVQLVESGGGLVQPGGSLRLSCAASGFTFSSFGMHWVRQAPGKGLEWVAYISSGSSPIYYVDKLKGRFTISRDNAKNSLYLQMNSLRAEDTAVYYCARAGYAVRNALDYWGQGTLVTVSS VL: DIVMTQSPPTLSLSPGERVTLSCKSSQSLLNVGNQKNYLAWYQQKPGQAPKLLIYGASTRESGIPDRFSGSGSGTDFTLTISSLQPEDFAVYYCQNDLFYPLTFGGGTKVEIK | 27.7% | –
3 | 14.1% | 0.27 nM | 7.75 nM | 2.54 nM | – | – | – | 413H9F8-cp5 (antibody, V domains shown, humanized IgG; constant regions not specified) VH: DVQLVESGGGLVQPGGSLRLSCAASGFTFSSFGMHWVRQAPGKGLEWVAYISSGSSPIYYVDKLKGRFTISRDNAKNSLYLQMNSLRAEDTAVYYCARAGYAVRNALDYWGQGTLVTVSS VL: DIVMTQSPPTLSLSPGERVTLSCKSSQSLLNVGNQKNYLAWYQQKPGQAPRLLIYGASTRESGIPDRFSGSGSGTDFTLTISSLQPEDFAVYYCQNDLFYPLTFGGGTKVEIK | 29.6% | –
4 | 13.3% | 0.28 nM | 6.68 nM | 2.47 nM | – | – | – | 413H9F8-cp7 (antibody, V domains shown, humanized IgG; constant regions not specified) VH: EVQLVESGGGLVQPGGSLRLSCAASGFTFSSFGMHWVRQAPGKGLEWVSYISSGSSPIYYVDKLKGRFTISRDNAKNSLYLQMNSLRAEDTAVYYCARAGYAVRNALDYWGQGTLVTVSS VL: DIVMTQSPPTLSLSPGERVTLSCKSSQSLLNVGNQKNYLAWYQQKPGQAPKLLIYGASTRESGIPDRFSGSGSGTDFTLTISSLQPEDFAVYYCQNDLFYPLTFGGGTKVEIK | 29.7% | –
5 | – | – | – | 3.01 nM | – | – | – | 413H9F8-cp12 (antibody, V domains shown, humanized IgG; constant regions not specified) VH: DVQLVESGGGLVQPGGSLRLSCAASGFTFSSFGMHWVRQAPGKGLEWVAYISSGSSPIYYVDKLKGRFTVSRDNAKNSLYLQMNSLRAEDTAVYYCARAGYAVRNALDYWGQGTLVTVSS VL: DIVMTQSPPTLSLSPGERVTLSCKSSQSLLNVGNQKNYLAWYQQKPGQAPKLLIYGASTRESGIPDRFSGSGSGTDFTLTISSLQPEDFAVYFCQNDLFYPLTFGGGTKVEIK | – | –
6 | 13.5% | 0.4 nM | 13.3 nM | – | – | – | – | 364D1A7-H1L1 (antibody, V domains shown, humanized IgG; constant regions not specified) VH: EVQLVESGGGLVQPGGSLRLSCAASGFTFSSFGMHWVRQAPGKGLEWVSYISSGSGSIYYADTVKGRFTISRDNAKNSLYLQMNSLRAEDTAVYYCATSYYYGNALEYWGQGTTVTVSS VL: DIVMTQSPDSLAVSLGERATINCKSSQSLFNVGNQKNYLTWYQQKPGQPPKLLIYWASTRKSGVPDRFSGSGSGTDFTLTISSLQAEDVAVYYCQNVYSYPLTFGGGTKVEIK | 26.7% | CDC EC50, human serum, CHO-CLDN18.2 [4]: 1.48 nM; EC50 [5]: 3.5 nM
7 | – | – | – | – | 1310 MFI | 812 | 1010 | hz282-19 (antibody, V domains shown, humanized IgG; constant regions not specified) VH: QVQLQESGPGLVKPSETLSLTCTVSGFSLTSYNVYWIRQPPGKGLEWIGVIWNTGATRYNSALKSRVTISKDTSKSQVSLKLSSVTAADTAVYYCARDSAMPAIPFAYWGQGTLVTVSS VL: DIVMTQSPSSLSASVGDRVTINCKSSQSLFGSVRQKNYLAWYQQKPGKSPKLLIYLASTRESGVPDRFSGSGSGTDFTLTISSLQPEDFAKYYCQQYYDIPWTFGGGTKVEIK | – | –
8 | – | – | – | – | 1080 MFI | 1240 | 2540 | hz282-4 (antibody, V domains shown, humanized IgG; constant regions not specified) VH: QVQLQESGPGLVKPSETLSLTCTVAGFSLTSYNVYWIRQPPGKGLEWIGVIWNTGATRYNSALKSRVTISKDTSKSQVSLKLSSVTAADTAVYYCARDSAMPAIPFAYWGQGTLVTVSS VL: DIVMTQSPDSLAVSLGERATINCKSSQSLFGSVRQKNYLAWYQQKPGQPPKLLIYLASTRESGVPDRFSGSGSGTDFTLTISSLQAEDVAVYYCQQYYDIPWTFGGGTKVEIK | – | –
9 | – | – | – | – | 1310 MFI | 808 | 1500 | hz282-10 (antibody, V domains shown, humanized IgG; constant regions not specified) VH: QVQLQESGPGLVKPSETLSLTCTVSGFSLTSYNVYWIRQPPGKGLEWIGVIWNTGATRYNSALKSRVTISKDTSKNQVSLKLSSVTAADTAVYYCARDSAMPAIPFAYWGQGTLVTVSS VL: DIQMTQSPSSLSASVGDRVTITCKSSQSLFGSVRQKNYLAWYQQKPGKAPKLLIYLASTRESGVPSRFSGSGSGTDFTLTISSLQPEDFATYYCQQYYDIPWTFGGGTKVEIK | – | –
10 | – | – | – | 3.68 nM | 1340 MFI | 1190 | 2000 | hz282-11 (antibody, V domains shown, humanized IgG; constant regions not specified; also called humanized 282A12(T62A) (hz282-11)) VH: QVQLQESGPGLVKPSETLSLTCTVSGFSLTSYNVYWIRQPPGKGLEWIGVIWNTGATRYNSALKSRVTISKDTSKSQVSLKLSSVTAADTAVYYCARDSAMPAIPFAYWGQGTLVTVSS VL: DIQMTQSPSSLSASVGDRVTITCKSSQSLFGSVRQKNYLAWYQQKPGKAPKLLIYLASTRESGVPSRFSGSGSGTDFTLTISSLQPEDFATYYCQQYYDIPWTFGGGTKVEIK | – | EC50 [9]: 3.17 nM; EC50 [5]: 2.75 nM
11 | – | – | – | – | 1150 MFI | 1100 | 1670 | hz282-3 (antibody, V domains shown, humanized IgG; constant regions not specified) VH: QVQLQESGPGLVKPSETLSLTCTVSGFSLTSYNVYWIRQPPGKGLEWIGVIWNTGATRYNSALKSRVTISKDTSKSQVSLKLSSVTAADTAVYYCARDSAMPAIPFAYWGQGTLVTVSS VL: DIVMTQSPDSLAVSLGERATINCKSSQSLFGSVRQKNYLAWYQQKPGQPPKLLIYLASTRESGVPDRFSGSGSGTDFTLTISSLQAEDVAVYYCQQYYDIPWTFGGGTKVEIK | – | –
12 | – | – | – | – | 1240 MFI | 981 | 987 | hz282-20 (antibody, V domains shown, humanized IgG; constant regions not specified) VH: QVQLQESGPGLVKPSETLSLTCTVAGFSLTSYNVYWIRQPPGKGLEWIGVIWNTGATRYNSALKSRVTISKDTSKSQVSLKLSSVTAADTAVYYCARDSAMPAIPFAYWGQGTLVTVSS VL: DIVMTQSPSSLSASVGDRVTINCKSSQSLFGSVRQKNYLAWYQQKPGKSPKLLIYLASTRESGVPDRFSGSGSGTDFTLTISSLQPEDFAKYYCQQYYDIPWTFGGGTKVEIK | – | –
13 | – | – | – | – | 1230 MFI | 1380 | 2020 | hz282-15 (antibody, V domains shown, humanized IgG; constant regions not specified) VH: QVQLQESGPGLVKPSETLSLTCTVSGFSLTSYNVYWIRQPPGKGLEWIGVIWNTGATRYNSALKSRVTISKDTSKSQVSLKLSSVTAADTAVYYCARDSAMPAIPFAYWGQGTLVTVSS VL: DIQMTQSPSSLSASVGDRVTITCKSSQSLFGSVRQKNYLAWYQQKPGKSPKLLIYLASTRESGVPDRFSGSGSGTDFTLTISSLQPEDFAKYYCQQYYDIPWTFGGGTKVEIK | – | –
14 | – | – | – | – | 1220 MFI | 1230 | 1940 | hz282-12 (antibody, V domains shown, humanized IgG; constant regions not specified) VH: QVQLQESGPGLVKPSETLSLTCTVAGFSLTSYNVYWIRQPPGKGLEWIGVIWNTGATRYNSALKSRVTISKDTSKSQVSLKLSSVTAADTAVYYCARDSAMPAIPFAYWGQGTLVTVSS VL: DIQMTQSPSSLSASVGDRVTITCKSSQSLFGSVRQKNYLAWYQQKPGKAPKLLIYLASTRESGVPSRFSGSGSGTDFTLTISSLQPEDFATYYCQQYYDIPWTFGGGTKVEIK | – | –
15 | – | – | – | – | 1190 MFI | 960 | 1610 | hz282-8 (antibody, V domains shown, humanized IgG; constant regions not specified) VH: QVQLQESGPGLVKPSETLSLTCTVAGFSLTSYNVYWIRQPPGKGLEWIGVIWNTGATRYNSALKSRVTISKDTSKSQVSLKLSSVTAADTAVYYCARDSAMPAIPFAYWGQGTLVTVSS VL: DIVMTQSPDSLAVSLGERATINCKSSQSLFGSVRQKNYLAWYQQKPGQSPKLLIYLASTRESGVPDRFSGSGSGTDFTLTISSLQAEDVAKYYCQQYYDIPWTFGGGTKVEIK | – | –
